This note sets out measurements from patent US6866997.

pKd: −log10 of the molar value.

Series [1] deals with anti-ras lead zinc finger peptide (designed) (synthetic). Particulars: apparent Kd; phage display.
The test system of series [2] is anti-ras optimised zinc finger peptide (F1 position +3 Asn) (synthetic). Particulars: apparent Kd; phage display, Zn.
Series [3] has as its target F2-Arg finger 3 Asp2Ala finger 3 helix position 2 D to A (synthetic) (UniProt P08046). Particulars: about four-fold reduced affinity versus F2-Arg; phage ELISA, Zn, 20 C. Background: An ELISA detects its analyte on a solid surface through an enzyme-linked reagent.
The target in series [4] is Zif268 DNA-binding domain finger 3 Asp2Ala finger 3 helix position 2 D to A (UniProt P08046). The conditions noted are these: about four-fold reduced affinity versus wild-type Zif268; phage ELISA, Zn, 20 C.

By pKd is commonly meant the Kd on a negative log10 scale, so that one unit is a factor of ten. GACGGCGCC (double strand): the pKd was 7.77 in series [1] and 8.52 in series [2]. As for “GCGGTGGCG (double strand) [F2-Arg consensus site]”, in series [3], the binding signal was determined as 4 fold. For “GCGTGGGCG (double strand) [Zif268 consensus site]”, the binding signal in series [4] was found to be 4 fold.
